Results reported in patent US20100279923A1.

Target: T1, factor XII (FXII/FXIIa) in rat plasma (rat) (UniProt D3ZTE0)
T1 sequence (looked up): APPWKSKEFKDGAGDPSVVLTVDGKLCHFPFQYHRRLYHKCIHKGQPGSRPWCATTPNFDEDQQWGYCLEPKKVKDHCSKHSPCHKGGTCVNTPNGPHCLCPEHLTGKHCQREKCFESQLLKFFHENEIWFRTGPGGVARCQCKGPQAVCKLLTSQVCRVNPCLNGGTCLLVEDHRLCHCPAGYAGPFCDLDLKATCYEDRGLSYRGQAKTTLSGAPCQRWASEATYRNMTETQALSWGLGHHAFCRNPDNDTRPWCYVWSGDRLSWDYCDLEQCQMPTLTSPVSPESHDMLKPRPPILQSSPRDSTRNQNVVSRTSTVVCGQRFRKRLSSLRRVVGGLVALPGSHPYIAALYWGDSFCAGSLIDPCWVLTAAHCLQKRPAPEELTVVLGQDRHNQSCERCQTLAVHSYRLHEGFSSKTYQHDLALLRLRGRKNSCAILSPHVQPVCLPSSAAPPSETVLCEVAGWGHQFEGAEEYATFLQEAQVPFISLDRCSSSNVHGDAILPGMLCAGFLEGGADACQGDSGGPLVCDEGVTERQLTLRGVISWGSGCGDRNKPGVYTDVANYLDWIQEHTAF
Assay: cell-based or functional assay

B1: Berinert P (C1 esterase inhibitor) (protein, human, UniProt P05155 23-500, looked up)
chain: NPNATSSSSQDPESLQDRGEGKVATTVISKMLFVEPILEVSSLPTTNSTTNSATKITANTTDEPTTQPTTEPTTQPTIQPTQPTTQLPTDSPTQPTTGSFCPGPVTLCSDLESHSTEAVLGDALVDFSLKLYHAFSAMKKVETNMAFSPFSIASLLTQVLLGAGENTKTNLESILSYPKDFTCVHQALKGFTTKGVTSVSQIFHSPDLAIRDTFVNASRTLYSSSPRVLSNNSDANLELINTWVAKNTNNKISRLLDSLPSDTRLVLLNAIYLSAKWKTTFDPKKTRMEPFHFKNSVIKVPMMNSKKYPVAHFIDQTLKAKVGQLQLSHNLSLVILVPQNLKHRLEDMEQALSPSVFKAIMEKLEMSKFQPTLLTLPRIKVTTSQDMLSIMEKLEFFDFSYDLNLCGLTEDPDLQVSAMQHQTVLELTETGVEAAAASAISVARTLLVFEVQQPFLFVLWDQQHKFPVFMGRVYDPRA
FXII activity [% of the norm] in rat plasma spiked with 0.98 U/mL Berinert P (% of the norm): 215
FXII activity [% of the norm] in rat plasma spiked with 2.4 U/mL Berinert P (% of the norm): 94
FXII activity [% of the norm] in rat plasma spiked with 4.5 U/mL Berinert P (% of the norm): 85
FXII activity [% of the norm] in rat plasma spiked with 9.92 U/mL Berinert P (% of the norm): 55
FXII activity [% of the norm] in rat plasma spiked with 16.7 U/mL Berinert P (% of the norm): 25
